Reference: US20110002929A1 (published 2011)
Residue numbers refer to the chain shown, from its start.

T1: human RANK-L (human, UniProt O14788 140-317)
T1 chain: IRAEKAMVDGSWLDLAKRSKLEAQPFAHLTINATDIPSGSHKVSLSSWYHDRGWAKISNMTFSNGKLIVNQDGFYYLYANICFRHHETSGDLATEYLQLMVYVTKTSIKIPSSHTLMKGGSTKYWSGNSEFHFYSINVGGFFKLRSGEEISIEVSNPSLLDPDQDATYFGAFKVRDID

B1: RANKL13hum5 (VHH)
VHH: EVQLVESGGGLVQPGGSLRLSCAASGFTFSSYPMGWFRQAPGKGREFVSSITGSGGSTYYADSVKGRFTISRDNAKNTLYLQMNSLRPEDTAVYYCAAYIRPDTYLSRDYRKYDYWGQGTLVTVSS
B2: RANKL13 (VHH)
VHH: B1 VHH with P14A, F27R, S30R, G44E, S49A, L79V, Y95S, L121Q
B3: RANKL13hum5_D62E (VHH)
VHH: B1 VHH with D62E

Biological target: T1, human RANK-L
Assay: AlphaScreen competition

IC50 [pM] | Binder
167 | B1
228 | B2
156 | B3
